In patent US10175123B2, “MEMS-based calorimeter, fabrication, and use thereof” (THE TRUSTEES OF COLUMBIA UNIVERSITY IN THE CITY OF NEW YORK, priority 2013, dated 2019):

Legend:
[1] = Polymer MEMS DSC measurement of lysozyme unfolding; format: physicochemical; details: 0.1 M Glycine-HCl buffer pH 2.5, 5 K/min, all concentrations except 1 mg/mL
Protocol: Before DSC measurements, the baseline, i.e., the thermopile output voltage in the absence of a differential power input, during temperature scanning in the range of interest was recorded with both calorimetric channels filled with buffer solutions. After which, characterizations of biomolecules were performed with the calorimetric channels, respectively filled with a biological sample and a buffer solutions, and scanned in the same range with pre-specified rate. The temperature sensors were used to monitor the temperatures of calorimetric channels, while the device output was obtained in real time to compute the biomolecular thermal power.
The calibrated polymer MEMS DSC device was then exploited to characterize protein unfolding. Glycine-HCl buffer (0.1 M, pH 2.5) was filled in both sample and reference calorimetric channels while the device was scanned at a constant rate of 5 K/min. […]
The thermopile differential voltage as a function of temperature, corrected by baseline subtraction, was measured at varying concentrations ranging from 1 to 20 mg/mL (FIG. 42). […] Furthermore, the differential heat capacity as a function of temperature and the calibrated device sensitivity can be calculated from the device voltage output by Equation 7. The sample heat capacity as a function of temperature was determined by: […]

[2] = typical range of published data; cited from earlier work
[3] = MEMS DSC measurement of lysozyme unfolding; format: physicochemical; details: 1 to 20 mg/mL in 0.1 M Glycine-HCl buffer pH 2.5, scan 25-75 °C at 5 °C/min
Protocol: DSC measurements of biomolecules were performed using the calibrated microdevice, whose sample chamber and reference chamber were respectively filled with biological sample and buffer solutions, scanned in a range of temperature of interest. The temperature sensors were used to monitor the temperatures of calorimetric chambers while the device output was obtained in real time to compute the biomolecular thermal power. Before DSC measurements, the baseline in device output, i.e., the thermopile output voltage in the absence of a differential power input, during temperature scanning was measured with both calorimetric chambers filled with buffer solutions. […]
The thermopile output voltage as a function of temperature, corrected by baseline subtraction, was measured at varying protein concentrations ranging from 1 to 20 mg/mL (FIG. 10).
Despite the amplitude difference of device output at various protein concentrations, they all yielded consistent estimates of the thermodynamic properties associated with the protein unfolding process. In particular, the profile shape of c was generally not influenced by protein concentration, and ΔH was consistently determined to be approximately 450 kJ/mol with a corresponding melting temperature Tm of approximately 55° C.

[4] = MEMS AC-DSC measurement of lysozyme unfolding; format: physicochemical; details: 10 and 20 mg/mL, 0.1 M Glycine-HCl pH 2.5, 25 to 82 °C at 5 °C/min, AC modulation 1, 5 or 10 Hz; depends on modulation frequency
Text: The MEMS AC-DSC device calibrated above was used to measure the thermal behavior of protein unfolding.
Meanwhile, the specific heat capacity (c) of the protein as a function of temperature can be computed from the thermopile voltage amplitude (FIG. 19).

Substance: lysozyme: targeted sample biomolecule, purchased from Sigma Aldrich (lyophilized powder, protein ≥90%)
- melting temperature Tm [1]: 54.71 °C
- total enthalpy change per mole (ΔH) of unfolding [1]: 101 kcal/mol
- Tm, published data [2]: 55-58.9 °C
- ΔH of unfolding, published data [2]: 90.1 to 105 kcal/mol
- melting temperature Tm [3]: approximately 55 °C
- total change of molar enthalpy (ΔH) of unfolding [3]: approximately 450 kJ/mol
- apparent melting temperature (Tm) [4]: 55-58 °C
